The source of these data is patent US20240076332A1.

The target of the experiment is cell surface bound heterodimeric receptor protein comprising a tyrosine kinase FGFR1c and a beta-Klotho protein (UniProt P11362). Description: cell-based or functional assay.
UniProt P11362, sequence (P11362 22-822, chain 1 of 2): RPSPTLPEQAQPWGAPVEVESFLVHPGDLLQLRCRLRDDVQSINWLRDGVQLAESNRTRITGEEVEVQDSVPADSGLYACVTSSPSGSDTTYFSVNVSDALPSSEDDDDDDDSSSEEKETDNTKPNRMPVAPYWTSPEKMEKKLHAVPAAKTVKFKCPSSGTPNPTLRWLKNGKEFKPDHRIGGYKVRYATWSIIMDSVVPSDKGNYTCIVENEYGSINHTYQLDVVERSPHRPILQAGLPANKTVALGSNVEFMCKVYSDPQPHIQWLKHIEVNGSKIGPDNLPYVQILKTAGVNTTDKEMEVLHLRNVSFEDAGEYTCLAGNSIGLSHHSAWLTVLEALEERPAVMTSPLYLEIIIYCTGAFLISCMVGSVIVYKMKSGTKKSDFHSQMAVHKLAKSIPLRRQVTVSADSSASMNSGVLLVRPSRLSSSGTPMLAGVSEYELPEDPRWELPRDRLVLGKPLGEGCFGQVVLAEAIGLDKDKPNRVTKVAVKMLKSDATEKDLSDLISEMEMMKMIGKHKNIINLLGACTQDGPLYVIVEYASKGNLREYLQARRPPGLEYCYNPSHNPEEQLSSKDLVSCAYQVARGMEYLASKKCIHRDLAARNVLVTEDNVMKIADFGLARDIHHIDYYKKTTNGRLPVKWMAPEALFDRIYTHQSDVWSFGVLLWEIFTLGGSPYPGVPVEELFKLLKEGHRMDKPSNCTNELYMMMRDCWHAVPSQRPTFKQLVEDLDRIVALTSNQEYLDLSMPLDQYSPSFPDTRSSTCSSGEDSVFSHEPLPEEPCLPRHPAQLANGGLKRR
UniProt P11362, sequence (Q86Z14 whole entry, chain 2 of 2, further chain): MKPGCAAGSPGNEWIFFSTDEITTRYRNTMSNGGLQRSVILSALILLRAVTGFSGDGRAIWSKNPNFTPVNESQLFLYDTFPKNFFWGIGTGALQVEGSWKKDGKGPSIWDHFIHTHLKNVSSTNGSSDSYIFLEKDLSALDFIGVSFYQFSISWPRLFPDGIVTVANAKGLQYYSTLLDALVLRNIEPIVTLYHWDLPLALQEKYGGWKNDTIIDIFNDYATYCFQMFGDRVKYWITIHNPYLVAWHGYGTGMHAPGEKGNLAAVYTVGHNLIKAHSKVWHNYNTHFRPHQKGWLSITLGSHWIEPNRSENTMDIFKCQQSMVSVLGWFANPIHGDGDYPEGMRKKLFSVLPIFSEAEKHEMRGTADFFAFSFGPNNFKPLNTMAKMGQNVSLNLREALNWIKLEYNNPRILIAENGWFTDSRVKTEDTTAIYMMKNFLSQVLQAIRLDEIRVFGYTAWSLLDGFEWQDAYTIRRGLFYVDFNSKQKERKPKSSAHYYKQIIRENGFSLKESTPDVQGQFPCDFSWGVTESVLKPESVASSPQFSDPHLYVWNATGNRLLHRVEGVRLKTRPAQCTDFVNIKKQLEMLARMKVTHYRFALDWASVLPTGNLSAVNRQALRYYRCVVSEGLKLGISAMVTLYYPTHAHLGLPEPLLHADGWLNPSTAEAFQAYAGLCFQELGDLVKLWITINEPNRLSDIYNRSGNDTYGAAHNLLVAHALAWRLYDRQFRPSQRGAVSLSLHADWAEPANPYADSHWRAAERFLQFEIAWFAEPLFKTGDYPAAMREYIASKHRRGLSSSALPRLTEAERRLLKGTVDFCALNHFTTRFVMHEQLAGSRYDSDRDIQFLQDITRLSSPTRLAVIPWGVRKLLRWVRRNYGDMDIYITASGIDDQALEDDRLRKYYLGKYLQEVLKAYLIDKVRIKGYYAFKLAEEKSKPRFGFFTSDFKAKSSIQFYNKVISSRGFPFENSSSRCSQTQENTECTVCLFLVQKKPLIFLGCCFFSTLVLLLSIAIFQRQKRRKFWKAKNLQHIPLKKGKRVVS

“human FGF21 (from UniProt Q9NSA1 29-209) (ligand)”: the EC50 of firefly luciferase reporter-gene response (Gal4-Elk-1), HEK293 cells with FGFR1c and optimized synthetic beta-Klotho gene, treated with increasing concentrations of human FGF21 stood at 0.003 µg/mL; the EC50 of firefly luciferase reporter-gene response, HEK293 cells with FGFR1c and native beta-Klotho gene, freeze, thaw and use format came to 0.024 µg/mL; the EC50 of firefly luciferase reporter-gene response, HEK293 cells with FGFR1c and optimized synthetic beta-Klotho gene, freeze, thaw and use format worked out at 0.007 µg/mL; the EC50 of firefly luciferase reporter-gene response, Jurkat cells transfected with the native beta-Klotho gene (Table 1) came to 0.172 µg/mL. The same substance showed an EC50 of firefly luciferase reporter-gene response, Jurkat cells with FGFR1c and native beta-Klotho gene, freeze, thaw and use format of 0.17 µg/mL.
